Consider one substance from publication PMC8626583, “Collagen’s primary structure determines collagen:HSP47 complex stoichiometry” (The Journal of Biological Chemistry, 2021).

The experiment deals with collagen model peptide Ac-(PPG)2PTGPRG(PPG)2-NH2. Description: crystal structure; HSP47 H273N/H274N with Ac-(PPG)2PTGPRG(PPG)2-NH2, space group P2_(1); crystallization conditions not told.

“HSP47 double-mutant H273N/H274N (natural protein)” came in with a stoichiometry N (HSP47 per collagen triple helix) of 2.
